In this series the test system is MS2 coat protein. Briefly: apparent KD of MS2 coat protein; designed switch direction (-1 OFF switch, 1 ON switch): -1; higher = weaker reporter binding. Summed up:
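The buffer was Tris-HCl pH 7.5 with KCl, MgCl2, BSA, DTT, tRNA and Tween-20. In it, SNAP-549-labelled MS2 coat protein was titrated in doubling steps from 0.7 or 1.5 nM to 3 µM over chip-bound RNA switches transcribed by stalled E. coli RNA polymerase on Illumina chips. Apparent KD is the per-design median over clusters of curve fits to normalised fluorescence.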

The mark [1] stands for this setting: input ligand: microRNA oligo, concentration not stated.
The mark [2] stands for this setting: Eterna round: R95, input ligand: FMN 200 uM.
The mark [3] stands for this setting: Eterna round: R95, input ligand: microRNA oligo, concentration not stated.
[4] abbreviates: Eterna round: R95, input ligand: none.

This is an account of results in the supplement of paper PMC9170038.

As to “GUUGUGUGAGGAUAUGCCUGGCCGUGAGGCCGGAUUGGGUGGCAGAAGGUACAUGAGGAUCACCCAUGUACGGG [salish99_ex4_4_007] (Eterna round: R97, puzzle: Exclusion 4)”, the “apparent KD of MS2 coat protein” value worked out at 45.4 nM (input ligand: FMN 200 uM) and 30.9 nM (input ligand: none).

For “GUUGUUACUGAGGAUAUUAUUUUAUUCGAUUGAUAAGAAGGCAGUACAUGAGGAUCACCCAUGUGGGUAGCUAG [Polaris20] (Eterna round: R97, puzzle: Exclusion 6)”, the “apparent KD of MS2 coat protein” value (input ligand: FMN 200 uM) is 434 nM and the “apparent KD of MS2 coat protein” value (input ligand: none) was 95.5 nM.

For the sequence “GUUGUUCGGUAGGAUAUGAAACAGCAGAGAUUGUCAGAAGGGCCGACAUGAGGAUCACCCAUGUGUGCGAAAGC [Eternabot (L1) Solution 26] (Eterna round: R97, puzzle: Exclusion 6)”, the “apparent KD of MS2 coat protein” value (input ligand: FMN 200 uM) worked out at 35.1 nM and the “apparent KD of MS2 coat protein” value (input ligand: none) is 50 nM.

Take “GUUGUUUAUGUAGGAUAUGCCUGGCGUGCCUUCGCAGAAGGACAUGAGGAUCACCCAUGUAUUGCGGUCUGCGUUCAGAUCGCU [salish99_ExNG1_r4_023] (Eterna round: R96, puzzle: Exclusion NG 1)”: the “apparent KD of MS2 coat protein” value came to 49.8 nM (input ligand: FMN 200 uM), 38.8 nM under setting [1] and 52.7 nM (input ligand: none).

As for “GUUUCACAUGAGGAUCACCCAUGUGAGGAUAUGUUAUUAAUGGCGAUAGUUAUUGGUGGCAGAAGGCGCGUGAU [JR_Exc1_Sub010] (Eterna round: R97, puzzle: Exclusion 1)”, the “apparent KD of MS2 coat protein” value by setting is: (input ligand: FMN 200 uM) 115 nM; (input ligand: none) 50.2 nM.

Consider “GUUUCGAGACGGAGAUCCGACAUGAGGAUCACCCAUGUCUCGUAAGCUUUUUGCUCGUCUUAUACUCCUCUGUUCUC [Elimod 49 - Jieux - Sensor, turn-off variant 1] (Eterna round: R97, puzzle: Sensor, turn-off variant 1)”, for which the “apparent KD of MS2 coat protein” value by setting is: (input ligand: FMN 200 uM) 26 nM; (input ligand: none) 27.2 nM.

For “GUUUUCAGACGGAGAUCCUACAUGAGGAUCACCCAUGUCUCUCUUGUUAAUUGCUCGUCUUUUCCUCCUCUGUUCUC [Elimod 34 - Jieux - Sensor, turn-off variant 1] (Eterna round: R97, puzzle: Sensor, turn-off variant 1)”, the “apparent KD of MS2 coat protein” value worked out at 545 nM (input ligand: FMN 200 uM) and 605 nM (input ligand: none).

For “UAAAAGCGAGGAUAUACAUGAGGAUCACCCAUGUGAGGCGAAAAGCCUCGGGCCAUCAGUAGAAGGUGCAAAAC [Arcecela] (puzzle: Exclusion 3)”, the “apparent KD of MS2 coat protein” value runs as follows: under setting [2], 79 nM; under setting [3], 68.9 nM; under setting [4], 112 nM.

In the case of “UAAAAUAGUGUGAGGAUAUGCUGGUCCUUGGAUCAGCAGAAGGCACAUGAGGAUCACCCAUGUAGUUAAUAAUA [Mat - Exclusion 4 - JL Mod - D25] (puzzle: Brourd's mod of Exclusion 4)”, the “apparent KD of MS2 coat protein” value reads like this: under setting [2], 196 nM; under setting [3], 36.8 nM; under setting [4], 34.4 nM.

Consider “UAAAAUUCGCGAGGAUAUGCGACCUAAUGGGAGGAUUGUCACAUGAGGAUCACCCAUGUCAGUCAGCAGAAGGCGCACCUGGUU [Anedmaon] (Eterna round: R96, puzzle: Exclusion NG 2)”, for which the “apparent KD of MS2 coat protein” value turned out to be 628 nM (input ligand: FMN 200 uM), 116 nM under setting [1] and 99.6 nM (input ligand: none).

On to “UAAAGCUUUGAGAUCCUUAACAUGAGGAUCACCCAUGUUCGUCUUAUGAUGGUCUGAUCCCUGAGGAUCGGACCGUU [Mat - Sensor v3 - turn-off var 1 - JL Mod - D5] (puzzle: Sensor v3, turn-off variant 1)”, for which the “apparent KD of MS2 coat protein” value was determined as 269 nM under setting [2], 26.6 nM under setting [3] and 252 nM under setting [4].

For the sequence “UAAAUGUGAGGAUAUCAGGUGUGCUAGCAUACUGGUACAUCUGAGAAGGCACAUGAGGAUCACCCAUGUUCCUU [Mat - Exclusion 4 - Mod of JL - D52] (puzzle: Exclusion 4)”, the “apparent KD of MS2 coat protein” value under setting [3] was determined as 16.7 nM.

Regarding “UAAAUGUGAGGAUAUUCGUAGAACUCGGAGACGAGUUUUACGGAGAAGGCACAUGAGGAUCACCCAUGUUCCUU [Mat - Exclusion 4 - JL Mod - D2] (Eterna round: R97, puzzle: Exclusion 4)”, the “apparent KD of MS2 coat protein” value was determined as 169 nM (input ligand: FMN 200 uM) and 28.6 nM (input ligand: none).

With “UAACAAAUGGUCAGGAUAUCACUCCCGGCCCAGAGUGAGAAGGGACAUGAGGAUCACCCAUGUAUGAUUCUCAC [jl-ex4-4.54 ViennaUCT mod] (Eterna round: R97, puzzle: Brourd's mod of Exclusion 4)”, the “apparent KD of MS2 coat protein” value reads like this: (input ligand: FMN 200 uM) 19.7 nM; (input ligand: none) 15.1 nM.

Regarding “UAACGGGCUUCUUCGUUUACAACAUGAGGAUCACCCAUGUUCGAGGAUAUCCACUAAGCUCUUCAGGAGAAGGCGAACAUAAUG [Rizaoran] (Eterna round: R96, puzzle: Exclusion NG 3)”, the “apparent KD of MS2 coat protein” value was determined as 37.2 nM (input ligand: FMN 200 uM), 15.1 nM under setting [1] and 14.6 nM (input ligand: none).

Consider “UAAGAUUACCGAGGAUAUGCUGGUUUCUAUUAAGCAGAAGGCGGACUCAACAUGAGGAUCACCCAUGUAAGAAGGGUAUUAGAU [Ex NG1 #9] (Eterna round: R96, puzzle: Exclusion NG 1)”, for which the “apparent KD of MS2 coat protein” value reads like this: (input ligand: FMN 200 uM) 89.8 nM; under setting [1], 82.1 nM; (input ligand: none) 94.8 nM.

“UAAGAUUACCGAGGAUAUGCUGGUUUCUCUCAAGCAGAAGGCGGACUCAACAUGAGGAUCACCCAUGUAAGACGGGUACUAGAU [Ex NG1 #11] (Eterna round: R96, puzzle: Exclusion NG 1)”: the “apparent KD of MS2 coat protein” value runs as follows: (input ligand: FMN 200 uM) 133 nM; under setting [1], 76.6 nM; (input ligand: none) 574 nM.

Take “UAAGGACAUGAGGAUCACCCAUGUUAGGAUAUGCCGAGGGAGACCCGUGUUGACACUUGCAGAAGGAGUAUGGG [Eternabot (L1) Solution 25] (Eterna round: R97, puzzle: Exclusion 1)”: the “apparent KD of MS2 coat protein” value (input ligand: FMN 200 uM) turned out to be 70.4 nM and the “apparent KD of MS2 coat protein” value (input ligand: none) is 86.2 nM.

Take “UAAGUGUGAGGAUAUGGUAAAGAUAGAAUGAUGAAAGAACUCCAGAAGGCACAUGAGGAUCACCCAUGUAGAUG [Mat - Exclusion 4 - Mod of JL - D24] (puzzle: Exclusion 4)”: the “apparent KD of MS2 coat protein” value by setting is: under setting [2], 60.2 nM; under setting [3], 30.8 nM; under setting [4], 31.9 nM.

On to “UAAUACAAGUAGAGAUUCUACAUGAGGAUCACCCAUGUGCUCGUCUUAUAAAGUACUAUCACGAAAGUGAUAGUACA [Mat - Sensor v3 - turn-off var 1 - Eli Mod - D97] (Eterna round: R96, puzzle: Sensor v3, turn-off variant 1)”, for which the “apparent KD of MS2 coat protein” value turned out to be 22.1 nM (input ligand: FMN 200 uM), 124 nM under setting [1] and 22.4 nM (input ligand: none).

Regarding “UAAUACAAGUAGAGAUUCUACAUGAGGAUCACCCAUGUGCUCGUCUUAUAAAGUACUAUCACGAAAGUGAUAGUACA [Mat - Sensor v3 - turn-off var 1 - Eli Mod - D97] (puzzle: Sensor v3, turn-off variant 1)”, the “apparent KD of MS2 coat protein” value is 23 nM under setting [2], 322 nM under setting [3] and 19.7 nM under setting [4].

Consider “UAAUACAAGUAGAGAUUCUACAUGAGGAUCACCCAUGUGCUCGUCUUAUAAAGUACUAUCACGAAAGUGAUAGUACU [Mat - Sensor v3 - turn-off var 1 - Eli Mod - D98] (puzzle: Sensor v3, turn-off variant 1)”, for which the “apparent KD of MS2 coat protein” value by setting is: under setting [2], 18.3 nM; under setting [3], 192 nM; under setting [4], 17.4 nM.

On to “UAAUAGCAAGCAAGAUCCCACAUGAGGAUCACCCAUGUGCUCGUCUUAUAAGGUACUGUGACGAAAGUCACGGUACC [Sensor 3, v1 - 98] (puzzle: Sensor v3, turn-off variant 1)”, for which the “apparent KD of MS2 coat protein” value reads like this: under setting [2], 45.5 nM; under setting [3], 535 nM; under setting [4], 47.5 nM.

As for “UAAUAUCUGCAGGAUAUCGGUGUAGCACGCGUAUGAGAAGGGCAGACAUGAGGAUCACCCAUGUAUAGGGUCCG [BotMod 1 - Jieux - Exclusion 6] (Eterna round: R97, puzzle: Exclusion 6)”, the “apparent KD of MS2 coat protein” value came to 246 nM (input ligand: FMN 200 uM) and 49.4 nM (input ligand: none).

Consider “UAAUUGAUUAAUAAAUAAUACAUGAGGAUCACCCAUGUAGAUCCUACAUACCAUUUAAGUAGCUCGUCUUAUUAUUA [Sensor-V1 #62] (Eterna round: R97, puzzle: Sensor, turn-off variant 1)”, for which the “apparent KD of MS2 coat protein” value came out at 217 nM (input ligand: FMN 200 uM) and 213 nM (input ligand: none).

“UACAUGAGGAUCACCCAUGUUUUGUCGUGUAUGGUAUUUAUCUAGGAUAUCAAUGGAUUUAUUUAUGAGAAGGAGAAUAUUAAU [JMF's solution 38] (Eterna round: R96, puzzle: Exclusion NG 3)”: the “apparent KD of MS2 coat protein” value amounted to 39.6 nM (input ligand: FMN 200 uM), 25.6 nM under setting [1] and 32.3 nM (input ligand: none).

Regarding “UACAUGAGGAUCACCCAUGUUUUGUCGUGUAUGGUAUUUAUCUAGGAUAUCAAUGUAUUUAUUUAUGAGAAGGAGAAUAUUAAU [JMF's solution 12] (Eterna round: R96, puzzle: Exclusion NG 3)”, the “apparent KD of MS2 coat protein” value under setting [1] is 29.6 nM.

Turning to “UACAUGAGGAUCACCCAUGUUUUGUCGUGUAUGGUAUUUAUCUAGGAUAUCAAUUUGUGUAUUUAUGAGAAGGAGAAUAUUAAU [JMF's solution 68] (Eterna round: R96, puzzle: Exclusion NG 3)”, the “apparent KD of MS2 coat protein” value is, setting by setting: (input ligand: FMN 200 uM) 44 nM; under setting [1], 29.5 nM; (input ligand: none) 45.8 nM.
